# Laboratory results taken from patent US20210292414A1 (H LUNDBECK A S, published 2021).
# Numbering of substitutions follows the chain as printed.
# B1: Antibody 6003-799 (antibody, human IgG1, V domains shown)
# VH: QVQLVESGGGVVQPGRSLRLSCAASGFTFSSYGMHWVRQAPGKGLEWVTVISYDGSNKYYADSVKGRFTISRDNSKNTLYLQMNSLRAEDTAVYYCAKLTGDAFDIWGQGTMVTVSS
# VL: EIVLTQSPATLSLSPGERATLSCRASQSVSSYLVWYQQKPGQAPRLLIYHASNRATGIPARFSGSGSGTDFTLTISSLEPEDFAVYYCQQRSNWPRITFGQGTRLEIK
# B2: Antibody 6003-822 (antibody, human IgG1, V domains shown)
# VH: EVQLLESGGGLVQPGESLTLSCAASGFTLSSYAMSWVRQAPGKGLEWVSSISGRLGTTYYAASVKGRFTISRDNSKNTLYLQMNSLRAEDTAIYSCAKAPSDAFDIWGQGTMVTVSS
# VL: B1 VL with V34A, H50D, R96I, I97F, Q101P, R104K, L105V, E106D
# B3: Antibody 6003-886 (antibody, human IgG1, V domains shown)
# VH: QVQLVQSGAEVKKPGASVKVSCKASGYTFTKYGISWVRQAPGQGLEWMGWISAYNGNTNYAQKLQDRVTMTTDTFTSTAYMELRSLRSDDTAVYFCARDGPLTGDFTFYGMDVWGQGTTVTVSS
# VL: B1 VL with V34A, H50D, R96P, I97F, Q101P, R104K, L105V, E106D
# B4: Antibody 6003-900 (antibody, human IgG1, V domains shown)
# VH: EVQLVESGGGLVKPGGSLRLSCAASGFTFSSYSMNWVRQAPGKGLEWVSSISSSSSYIYYADSVKGRFTISRDNAKNSLYLQMNSLRAEDTAVYYCARRGSGSYDAFDIWGQGTMVTVSS
# VL: EIVLTQSPDFQSVTPKEKVTITCRASQSIGYSLHWYQQKPDQSPKLLIKYASQSFSGVPSRFSGSGSGTDFTLTINSLEAEDAAAYYCHQSSSLPLTFGGGTKVEIK
# notes: also called antibody 900; Sortilin human antibody 900
# B5: IgG1-6003-910 (antibody, V domains shown)
# VH: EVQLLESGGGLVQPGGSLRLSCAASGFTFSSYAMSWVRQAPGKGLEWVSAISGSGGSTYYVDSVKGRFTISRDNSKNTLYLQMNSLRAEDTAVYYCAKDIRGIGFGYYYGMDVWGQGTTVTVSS
# VL: EIVLTQSPATLSLSPGERATLSCRASQSVSSYLVWYQQKPGQAPRLLIYDASNRATGIPARFSGSGSGTDFTLTISSLEPEDFAVYYCQQRSNWPPTFGQGTRLEIK
# notes: also called Antibody 6003-910
# B6: IgG1-6003-972 (antibody, V domains shown)
# VH: QVQLVESGGGVVQPGRSLRLSCAASGFTFSDYAMHWVRRAPGKGLEWVVVISYDGSNKYYADSVKGRFTISRDNSKNTLYLQMNSLRAEDTAVYYCARDPSGGWYFDLWGRGTLVTVSS
# VL: B5 VL with V34A, V85L, N93H, P96R, R103K, L104V
# notes: also called Antibody 6003-972
# Target: T1, Sortilin SORTECDBAP_hB45678 (human/tetraodon chimera)
# T1 construct: Shuffle construct: chimeric human/tetraodon Sortilin ECD with BAP tag
# T1 chain: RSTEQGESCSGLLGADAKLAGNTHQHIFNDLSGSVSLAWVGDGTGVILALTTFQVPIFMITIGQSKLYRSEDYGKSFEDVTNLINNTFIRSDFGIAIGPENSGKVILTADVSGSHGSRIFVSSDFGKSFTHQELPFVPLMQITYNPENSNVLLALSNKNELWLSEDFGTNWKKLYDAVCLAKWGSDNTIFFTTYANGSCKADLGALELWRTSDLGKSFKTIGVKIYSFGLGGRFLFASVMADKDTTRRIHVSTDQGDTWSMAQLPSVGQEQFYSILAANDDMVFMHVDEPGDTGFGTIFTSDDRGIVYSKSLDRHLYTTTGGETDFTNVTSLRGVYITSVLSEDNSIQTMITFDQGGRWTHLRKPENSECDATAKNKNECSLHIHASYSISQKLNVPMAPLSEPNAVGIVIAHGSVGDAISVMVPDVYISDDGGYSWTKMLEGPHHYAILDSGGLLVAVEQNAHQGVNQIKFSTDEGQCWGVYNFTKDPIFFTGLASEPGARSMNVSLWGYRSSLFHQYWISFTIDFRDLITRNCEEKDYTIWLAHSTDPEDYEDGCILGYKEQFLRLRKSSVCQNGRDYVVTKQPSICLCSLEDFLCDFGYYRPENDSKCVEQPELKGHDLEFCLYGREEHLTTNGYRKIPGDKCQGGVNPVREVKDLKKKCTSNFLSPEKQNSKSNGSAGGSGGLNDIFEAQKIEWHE
# Experiment: BLI (Octet384RED)
row,Binder,EC50 [ng/mL]
1,B1,4.16
2,B2,2.08
3,B3,3.45
4,B4,1.19
5,B5,2.23
6,B6,2.57

# Target: T2, hRim
# T2 chimeric human/tetraodon Sortilin extracellular region, BAP tag: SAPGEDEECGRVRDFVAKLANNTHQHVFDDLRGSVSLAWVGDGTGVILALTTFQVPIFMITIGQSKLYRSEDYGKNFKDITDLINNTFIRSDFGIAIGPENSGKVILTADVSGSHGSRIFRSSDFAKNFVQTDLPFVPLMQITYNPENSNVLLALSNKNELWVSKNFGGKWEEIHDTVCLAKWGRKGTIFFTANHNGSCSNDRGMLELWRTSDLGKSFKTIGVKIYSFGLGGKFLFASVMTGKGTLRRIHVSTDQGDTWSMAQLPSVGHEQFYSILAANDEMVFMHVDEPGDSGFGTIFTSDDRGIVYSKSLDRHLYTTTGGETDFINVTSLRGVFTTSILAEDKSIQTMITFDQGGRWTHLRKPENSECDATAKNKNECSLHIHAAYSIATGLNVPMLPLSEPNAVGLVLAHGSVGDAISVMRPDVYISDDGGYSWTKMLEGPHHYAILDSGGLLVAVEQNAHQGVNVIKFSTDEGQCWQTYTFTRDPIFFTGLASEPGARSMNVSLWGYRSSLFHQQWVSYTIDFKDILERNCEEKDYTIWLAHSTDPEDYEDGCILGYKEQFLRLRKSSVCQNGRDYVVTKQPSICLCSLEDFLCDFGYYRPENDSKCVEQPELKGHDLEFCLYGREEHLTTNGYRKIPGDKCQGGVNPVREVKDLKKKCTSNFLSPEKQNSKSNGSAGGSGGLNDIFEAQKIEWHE
# Experiment: BLI (Octet384RED)
row,Binder,EC50 [ng/mL]
1,B1,5.02
2,B2,2.31
3,B3,4.42
4,B4,1.26
5,B5,2.59
6,B6,3.08

# Target: T3, Sortilin hSORTECDBAP (human, UniProt Q99523 78-755)
# T3 sequence: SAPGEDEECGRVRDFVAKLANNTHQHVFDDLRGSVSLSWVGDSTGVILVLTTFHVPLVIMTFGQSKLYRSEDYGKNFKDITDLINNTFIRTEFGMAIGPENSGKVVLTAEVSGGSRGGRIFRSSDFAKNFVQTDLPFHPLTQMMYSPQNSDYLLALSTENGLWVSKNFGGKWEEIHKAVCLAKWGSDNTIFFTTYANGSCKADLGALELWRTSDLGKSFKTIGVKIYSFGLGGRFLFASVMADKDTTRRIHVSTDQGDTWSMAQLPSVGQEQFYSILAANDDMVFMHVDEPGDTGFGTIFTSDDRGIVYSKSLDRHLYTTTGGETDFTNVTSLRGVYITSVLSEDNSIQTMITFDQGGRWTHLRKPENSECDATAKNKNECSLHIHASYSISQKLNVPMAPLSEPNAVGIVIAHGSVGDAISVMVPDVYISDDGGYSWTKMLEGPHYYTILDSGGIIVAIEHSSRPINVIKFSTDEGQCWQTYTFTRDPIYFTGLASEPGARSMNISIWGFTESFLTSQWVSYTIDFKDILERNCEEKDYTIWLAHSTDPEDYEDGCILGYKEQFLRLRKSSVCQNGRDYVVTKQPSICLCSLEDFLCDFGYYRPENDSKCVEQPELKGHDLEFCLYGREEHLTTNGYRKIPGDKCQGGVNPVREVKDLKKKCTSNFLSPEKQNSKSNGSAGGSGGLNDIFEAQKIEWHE
# Experiment: BLI (Octet384RED)
row,Binder,EC50 [ng/mL]
1,B1,3.49
2,B2,1.97
3,B3,3.4
4,B4,1.06
5,B5,1.34
6,B6,1.35

# Target: T4, Sortilin SORTECDBAP_hB12390 (human/tetraodon chimera)
# T4 construct: Shuffle construct: chimeric human/tetraodon Sortilin ECD with BAP tag
# T4 chain: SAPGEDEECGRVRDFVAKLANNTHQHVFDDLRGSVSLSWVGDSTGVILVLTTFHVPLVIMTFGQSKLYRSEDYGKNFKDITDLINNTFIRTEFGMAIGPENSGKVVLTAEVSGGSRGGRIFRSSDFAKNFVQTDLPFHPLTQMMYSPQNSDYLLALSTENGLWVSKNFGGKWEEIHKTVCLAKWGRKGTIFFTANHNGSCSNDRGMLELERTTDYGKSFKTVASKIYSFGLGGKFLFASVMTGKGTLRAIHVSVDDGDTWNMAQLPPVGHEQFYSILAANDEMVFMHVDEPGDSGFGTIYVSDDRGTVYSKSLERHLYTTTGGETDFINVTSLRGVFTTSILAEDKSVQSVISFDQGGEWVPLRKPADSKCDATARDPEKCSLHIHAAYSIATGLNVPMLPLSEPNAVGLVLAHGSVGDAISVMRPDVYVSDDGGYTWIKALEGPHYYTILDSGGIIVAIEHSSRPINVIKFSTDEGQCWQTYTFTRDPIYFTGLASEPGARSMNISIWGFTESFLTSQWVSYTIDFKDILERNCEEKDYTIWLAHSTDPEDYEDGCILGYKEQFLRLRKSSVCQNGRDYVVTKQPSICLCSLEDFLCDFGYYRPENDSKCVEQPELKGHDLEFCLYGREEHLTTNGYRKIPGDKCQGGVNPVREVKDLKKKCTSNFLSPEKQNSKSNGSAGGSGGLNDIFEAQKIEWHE
# Experiment: BLI (Octet384RED)
row,Binder,EC50 [ng/mL]
1,B1,3.36
2,B2,1.89
3,B3,3.36
4,B4,1.06
5,B5,1.84
6,B6,2.36
